What is called Kd is the free concentration of one partner at which half of the binding sites on the other are occupied at equilibrium, for simple one-to-one binding. Low values mean tighter binding, high ones weaker binding. By koff is commonly meant the first-order rate constant of dissociation. A lower koff goes with slow dissociation.

In experiment [1] the target is T1, green fluorescent protein (UniProt P42212 2-238 = GFP). Description: SPR.
Another experiment has as its target GFP-K162R. Description: SPR. In general terms: SPR reads the build-up and loss of mass on a sensor chip optically.
For another experiment, the target named is GFP-K131S. Put plainly: SPR.
For another experiment, the target named is GFP-K140R. Put plainly: SPR.
A further experiment addresses GFP-K41R. Put plainly: SPR.
In the next experiment the target is GFP-K166R. Description: SPR.
In experiment [2] the target is T1, green fluorescent protein. Description: SPR. The source holds these as a separate data set.
Experiment [3] has as its target T2, beta-2 microglobulin (UniProt P61769 21-119). Description: BLI. On the technique in general: Biolayer interferometry detects binding as a change in optical thickness at a sensor tip.
Experiment [4] has as its target T2, beta-2 microglobulin. Description: BLI. This is another data set of the same source.

T2 sequence (P61769 21-119): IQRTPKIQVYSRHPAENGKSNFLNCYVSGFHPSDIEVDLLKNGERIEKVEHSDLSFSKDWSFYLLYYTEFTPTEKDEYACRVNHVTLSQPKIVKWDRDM

B1: αGFP-S54C (VHH)
VHH: QVQLVESGGALVQPGGSLRLSCAASGFPVNRYSMRWYRQAPGKEREWVAGMSCAGDRSSYEDSVKGRFTISRDDARNTVYLQMNSLKPEDTAVYYCNVNVGFEYWGQGTQVTVSS
With B1, the Kd is 1.11 nM in experiment [1]; 1.26 nM in the experiment with GFP-K162R; 1.16 nM in the experiment with GFP-K131S; 1.05 nM in the experiment with GFP-K140R; 1.16 nM with GFP-K41R; 1.11 nM in the experiment with GFP-K166R. Moreover, the koff with GFP-K162R turned out to be 0.000171 s⁻¹; in the experiment with GFP-K131S, 0.000168 s⁻¹; in the experiment with GFP-K140R, 0.000169 s⁻¹; with GFP-K41R, 0.000174 s⁻¹; with GFP-K166R, 0.000175 s⁻¹; in experiment [2], 0.000188 s⁻¹.

B2: nanobody 24 (VHH)
VHH: QVQLQESGGGSVQAGGSLRLSCAASGYTDSRYCMAWFRQAPGKEREWVARINSGRDITYYADSVKGRFTFSQDNAKNTVYLQMDSLEPEDTATYYCATDIPLRCRDIVAKGGDGFRYWGQGTQVTVSS
Take B2: the affinity with beta-2 microglobulin [3], expressed as Kd, was 105 nM. For the same molecule, in the experiment with beta-2 microglobulin [4], the koff is 0.018 s⁻¹.
